Test results taken from patent CN106432498A (UNIV ANHUI, dated 2017).
One block for each binder: values may come before it.

Key:
[1] = biological target: T1, 重组人uPAR蛋白 (recombinant human uPAR protein, uPAR-ECD) (human, UniProt Q03405 23-303, limits assumed); experiment: BLI (Fortebio), antibody captured on anti-human IgG Fc sensor, uPAR-ECD at 0.25-1 μM
T1 construct: extracellular domain; Bought reagent

[2] = biological target: 人尿激酶型纤溶酶原激活物受体 (human uPAR) on SW480 cells (human) (UniProt Q03405); experiment: flow cytometry on SW480 cells, antibody at 5 μg/ml, FITC goat anti-human IgG

T1 sequence (Q03405 23-303 limits assumed): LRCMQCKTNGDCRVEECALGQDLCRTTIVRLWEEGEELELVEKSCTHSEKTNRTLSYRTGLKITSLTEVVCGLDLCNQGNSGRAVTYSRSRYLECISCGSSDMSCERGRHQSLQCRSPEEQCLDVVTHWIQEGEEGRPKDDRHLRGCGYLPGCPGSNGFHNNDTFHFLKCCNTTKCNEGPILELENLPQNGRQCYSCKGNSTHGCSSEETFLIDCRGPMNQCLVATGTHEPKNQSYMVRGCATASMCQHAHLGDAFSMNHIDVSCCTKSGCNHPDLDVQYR

Kd [1]: 6.32 nM
koff [1]: 0.000454 s⁻¹
kon [1]: 71800 M⁻¹ s⁻¹
平均荧光强度 [2]: 4.44
阳性率 [2]: 99.6%
B1: H2BL2抗体 (humanized anti-uPAR antibody H2BL2) (antibody, human IgG1, kappa, V domains shown)
VH: EVQLVQSGAEVKKPGSSVKVSCKASGYTFTDYYIHWVRQAPGQGLEWIGWIFHGSDNTEYNEKFKSKATITADESTSTAYMELSSLRSEDTAVFYCARWGPHWYFDAWGRGTLVTVSS
VL: DIQMTQSPSTLSASVGDRVTITCRASSSVSYIHWYQQKPGRAPKPLMYEASSRATGVPSRFSGSGSGTEYTLTISSLQSDDFATYYCQQWNYPFTFGQGTKLEIKR
notes: also called H2BL2溶液

Kd [1]: 7.45 nM
koff [1]: 0.000576 s⁻¹
kon [1]: 77300 M⁻¹ s⁻¹
B2: ATN615抗体 (monoclonal antibody targeting uPAR) (antibody, V domains shown)
VH: GVKLQQSGPEVVKPGASVKISCKASGYSFTNFYIHWVKQRPGQGLEWIGWIFHGSDNTEYNEKFKDKATLTADTSSSTAYMQLSSLTSEDSAVYFCARWGPHWYFDVWGQGTTVTVSS
VL: DIVLTQSPDITAASLGQKVTITCSASSSVSYMHWYQQKSGTSPKPWIFEISKLASGVPARFSGSGSGTSYSLTISSMEAEDAAIYYCQQWNYPFTFGGGTKLEIKR
notes: Made in the same way as H2BL2 (293F cells, protein A); also called ATN615溶液
